The target of data set [1] is ArsR As(III)-responsive transcriptional repressor from Corynebacterium glutamicum (Corynebacterium glutamicum). Put plainly: crystal structure.
The data set “crystal structure” deals with the molecule itself. Put plainly: crystal structure.

Consider “ArsR As(III)-responsive transcriptional repressor from Corynebacterium glutamicum (natural protein)”, for which the stoichiometry N in data set [1] amounted to 2.

B1: ArsR As(III)-responsive transcriptional repressor from Acidithiobacillus ferrooxidans (natural protein)
chain: MEPLQDPAQIVARLEALASPVRLEIFRLLVEQEPTGLVSGDIAEHLGQPHNGISFHLKNLQHAGLVTVQREGRYQRYRAAMPVVRALVAYLTENCCHGTRDCALSGETRSPSVQEGNQ
As for B1, in the data set “crystal structure”, the “stoichiometry N” value came to 2.

What is called stoichiometry N is a count of units in the complex or per binding partner.

(Values after PMC6689322 (Journal of structural biology, 2019).)
